The text below walks through data of patent US20050261472A1, “Binding moieties for fibrin” (Dyax Corp., priority 1999, published 2005).

B1: synthetic polypeptide … (peptide)
peptide: H-RPCNYYGTCLH-NH2
modifications: disulfide 3-9
SMILES: CC(C)C[C@H](NC(=O)[C@@H]1CSSC[C@H](NC(=O)[C@@H]2CCCN2C(=O)[C@@H](N)CCCNC(=N)N)C(=O)N[C@@H](CC(N)=O)C(=O)N[C@@H](Cc2ccc(O)cc2)C(=O)N[C@@H](Cc2ccc(O)cc2)C(=O)NCC(=O)N[C@@H]([C@@H](C)O)C(=O)N1)C(=O)N[C@@H](Cc1c[nH]cn1)C(N)=O
B2: alanine scan peptide … (peptide)
peptide: H-LPCDAYGTCLD-NH2
modifications: disulfide 3-9
SMILES: CC(C)C[C@H](NC(=O)[C@@H]1CSSC[C@H](NC(=O)[C@@H]2CCCN2C(=O)[C@@H](N)CC(C)C)C(=O)N[C@@H](CC(=O)O)C(=O)N[C@@H](C)C(=O)N[C@@H](Cc2ccc(O)cc2)C(=O)NCC(=O)N[C@@H]([C@@H](C)O)C(=O)N1)C(=O)N[C@@H](CC(=O)O)C(N)=O
B3: Gd-DTPA-Gly[SEQ ID NO: 21] (peptide)
peptide: GWFHCPYDLCHIL
modifications: disulfide 5-10 (inferred); not fully specified (N-terminus); printed as Trp-Phe-His-Cys-Pro-Tyr-Asp-Leu-Cys-His-Ile-Leu; also: Gd(III) chelated by DTPA on N-terminal Gly
B4: alanine scan peptide … (peptide)
peptide: H-LPCAYYGTCLD-NH2
modifications: disulfide 3-9
SMILES: CC(C)C[C@H](NC(=O)[C@@H]1CSSC[C@H](NC(=O)[C@@H]2CCCN2C(=O)[C@@H](N)CC(C)C)C(=O)N[C@@H](C)C(=O)N[C@@H](Cc2ccc(O)cc2)C(=O)N[C@@H](Cc2ccc(O)cc2)C(=O)NCC(=O)N[C@@H]([C@@H](C)O)C(=O)N1)C(=O)N[C@@H](CC(=O)O)C(N)=O
B5: alanine scan peptide … (peptide)
peptide: H-LACDYYGTCLD-NH2
modifications: disulfide 3-9
SMILES: CC(C)C[C@H](NC(=O)[C@@H]1CSSC[C@H](NC(=O)[C@H](C)NC(=O)[C@@H](N)CC(C)C)C(=O)N[C@@H](CC(=O)O)C(=O)N[C@@H](Cc2ccc(O)cc2)C(=O)N[C@@H](Cc2ccc(O)cc2)C(=O)NCC(=O)N[C@@H]([C@@H](C)O)C(=O)N1)C(=O)N[C@@H](CC(=O)O)C(N)=O
B6: alanine scan peptide … (peptide)
peptide: H-LPCDYYGTCAD-NH2
modifications: disulfide 3-9
SMILES: CC(C)C[C@H](N)C(=O)N1CCC[C@H]1C(=O)N[C@H]1CSSC[C@@H](C(=O)N[C@@H](C)C(=O)N[C@@H](CC(=O)O)C(N)=O)NC(=O)[C@H]([C@@H](C)O)NC(=O)CNC(=O)[C@H](Cc2ccc(O)cc2)NC(=O)[C@H](Cc2ccc(O)cc2)NC(=O)[C@H](CC(=O)O)NC1=O
B7: synthetic polypeptide … (peptide)
peptide: H-LPCSYYGTCLH-NH2
modifications: disulfide 3-9
SMILES: CC(C)C[C@H](NC(=O)[C@@H]1CSSC[C@H](NC(=O)[C@@H]2CCCN2C(=O)[C@@H](N)CC(C)C)C(=O)N[C@@H](CO)C(=O)N[C@@H](Cc2ccc(O)cc2)C(=O)N[C@@H](Cc2ccc(O)cc2)C(=O)NCC(=O)N[C@@H]([C@@H](C)O)C(=O)N1)C(=O)N[C@@H](Cc1c[nH]cn1)C(N)=O
B8: synthetic polypeptide … (peptide)
peptide: H-RPCDYYGTCFD-NH2
modifications: disulfide 3-9
SMILES: C[C@@H](O)[C@@H]1NC(=O)CNC(=O)[C@H](Cc2ccc(O)cc2)NC(=O)[C@H](Cc2ccc(O)cc2)NC(=O)[C@H](CC(=O)O)NC(=O)[C@@H](NC(=O)[C@@H]2CCCN2C(=O)[C@@H](N)CCCNC(=N)N)CSSC[C@@H](C(=O)N[C@@H](Cc2ccccc2)C(=O)N[C@@H](CC(=O)O)C(N)=O)NC1=O
B9: synthetic polypeptide … (peptide)
peptide: H-FACHYYGTCLH-NH2
modifications: disulfide 3-9
SMILES: CC(C)C[C@H](NC(=O)[C@@H]1CSSC[C@H](NC(=O)[C@H](C)NC(=O)[C@@H](N)Cc2ccccc2)C(=O)N[C@@H](Cc2c[nH]cn2)C(=O)N[C@@H](Cc2ccc(O)cc2)C(=O)N[C@@H](Cc2ccc(O)cc2)C(=O)NCC(=O)N[C@@H]([C@@H](C)O)C(=O)N1)C(=O)N[C@@H](Cc1c[nH]cn1)C(N)=O

Bridge positions count the residues as written; N and C are the ends. Ends that are not written are not given here. Peptide text beside a SMILES is read from it.

T1 sequence (P02671 130-216): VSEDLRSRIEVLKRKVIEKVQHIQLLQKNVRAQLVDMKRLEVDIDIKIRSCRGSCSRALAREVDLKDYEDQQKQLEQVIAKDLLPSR
T1 sequence (P02675 164-491): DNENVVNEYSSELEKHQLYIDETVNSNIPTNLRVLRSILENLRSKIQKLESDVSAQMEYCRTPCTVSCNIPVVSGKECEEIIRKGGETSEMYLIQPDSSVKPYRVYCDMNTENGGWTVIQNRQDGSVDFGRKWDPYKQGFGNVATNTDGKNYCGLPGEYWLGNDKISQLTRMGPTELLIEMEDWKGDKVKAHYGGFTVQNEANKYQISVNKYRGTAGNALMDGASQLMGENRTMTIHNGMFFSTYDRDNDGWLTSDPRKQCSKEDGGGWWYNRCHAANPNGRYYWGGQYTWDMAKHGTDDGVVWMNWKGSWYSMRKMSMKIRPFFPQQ
T1 sequence (P02679 114-432): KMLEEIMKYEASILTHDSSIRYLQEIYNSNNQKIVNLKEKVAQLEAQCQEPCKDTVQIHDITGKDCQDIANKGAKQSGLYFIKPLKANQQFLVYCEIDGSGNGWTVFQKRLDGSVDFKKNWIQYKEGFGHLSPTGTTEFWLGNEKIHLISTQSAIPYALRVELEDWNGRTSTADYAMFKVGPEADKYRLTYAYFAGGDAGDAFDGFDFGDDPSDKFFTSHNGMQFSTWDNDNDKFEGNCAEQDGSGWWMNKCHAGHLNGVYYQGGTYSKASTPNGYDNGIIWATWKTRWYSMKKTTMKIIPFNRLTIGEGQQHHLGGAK
T1 sequence (P02671 36-97): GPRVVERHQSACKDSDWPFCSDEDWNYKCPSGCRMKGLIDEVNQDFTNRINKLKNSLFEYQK
T1 sequence (P02675 45-152): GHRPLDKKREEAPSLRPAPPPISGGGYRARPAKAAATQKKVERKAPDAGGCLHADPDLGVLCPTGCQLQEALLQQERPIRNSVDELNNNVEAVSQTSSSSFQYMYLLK
T1 sequence (P02679 27-88): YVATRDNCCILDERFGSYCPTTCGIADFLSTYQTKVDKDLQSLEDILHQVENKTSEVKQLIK

In one assay the target is DD(E) soluble fibrin-derived polypeptide (UniProt P02671). Kind of assay: Kd against DD(E) target.
Details: not given
Regarding HCPYDLCHIL, the Kd (in general, the equilibrium constant for the complex coming apart) was found to be 3.8 µM.

In the case of B1, the Kd was 4 µM.

The molecule B2 displayed a Kd of 4.5 µM.

B3: the Kd amounted to 2.9 µM.

In turn, WECPYGLCWI showed a Kd of 3.87 µM.

FHCPYDLCHIL displayed a Kd of 0.41 µM.

With H-LPCDYYGSCLD-NH2 (disulfide 3-9 (inferred)), the Kd was determined as 26 µM.

The molecule LPCDYYATCLD (C-terminal amide; N-terminus free) returned a Kd of 12.3 µM.

In the case of B4, the Kd worked out at 5.9 µM.

FHCPYDLCHI registered a Kd of 2 µM.

For the molecule B5, the dissociation constant Kd was determined as 2.9 µM.

H-LPCDYYGTCLD-NH2 (disulfide 3-9 (inferred)) came in with an equilibrium dissociation constant (Kd) of 2.6 µM.

For H-LPCDYYGVCLD-NH2 (disulfide 3-9 (inferred)), the Kd amounted to 28 µM.

Turning to LPCDYXGTCLD (1-naphthyl residue (Nal) at position 6; C-terminal amide; N-terminus free) [substituted peptide LPCDYNalGTCLD], the Kd stood at 125 µM.

For H-CDYYGTC-NH2 (disulfide 1-7 (inferred)) [truncated peptide CDYYGTC], the dissociation constant (Kd) is 38 µM.

Consider H-CDYYGTCL-NH2 (disulfide 1-7 (inferred)) [truncated peptide CDYYGTCL], for which the Kd turned out to be 22 µM.

Consider B6, for which the Kd was 10.1 µM.

LPCDYYXTCLD (not fully specified; D-alanine at position 7) [D-alanine peptide LPCDYYdATCLD] displayed a Kd of 4.9 µM.

For the molecule H-PCDYYGTCL-NH2 (disulfide 2-8 (inferred)) [truncated peptide …], the Kd is 50 µM.

Molecule B7 returned a Kd of 9.8 µM.

In the case of ECPYGLCWIQ, the dissociation constant (Kd) was determined as 2.23 µM.

On to B8, for which the Kd is 3.4 µM.

In the case of WECPYGLCWIQ, the Kd was 0.94 µM.

Consider B9, for which the Kd amounted to 7.3 µM.

On to GFHCPYDLCHIL, for which the Kd was determined as 6.7 µM.

A further assay addresses T1, DD(E) (Homo sapiens, UniProt P02671+P02675+P02679).
T1 construct: host or cells: purchased fibrinogen clotted with thrombin, digested with plasmin, then purified by ammonium sulfate cuts and Sephacryl S200
Kind of assay: dissociation constant against fibrin-derived polypeptide DD(E). The class given is binding. To be noted: read-out: Kd DD(E). Here is the method:
The soluble fibrin-derived polypeptide DD(E) was prepared following a modification of a published method (Moskoitz and Budzynksi, Biochemistry, 33: 12937-12944 (1994) and references therein). Fibrinogen containing a Factor XIII trace impurity (1 g, Grade L; purchased from American Diagnostica) was dissolved in TBS buffer and dialyzed overnight against TBS containing 5 mM citrate. The fibrinogen concentration was adjusted to 3.0 mg/ml and CaCl2 was added to a concentration of 10 mM. Clotting of the fibrinogen was initiated by the addition of thrombin to 0.5 U/ml and the clot was incubated for 3 hours at 37° C. The clot was cut up with a spatula to release water and to concentrate the clot. The clot pieces were washed twice with TBS.Ca buffer (TBS containing 2 mM CaCl2) and were centrifuged at 4,000×g to compact the clots between washes. The clot material was resuspended in 250 ml TBS containing 25 mM CaCl2 and 2 K.I.U. plasmin per mg fibrin. The clots were digested overnight at 20° C. Undigested clot was removed by pipette, and the supernatant was shaken with 10 ml of Lysine Sepharose (Pharmacia) for 30 minutes and filtered to remove the resin. Aprotinin was added to the filtrate to a concentration of 500 U/μL. Ammonium Sulfate was added to 30% saturation and the precipitated protein was removed by centrifugation. More ammonium sulfate was added to the supernatant to a final concentration of 50% saturation, and the precipitated protein was concentrated by centrifugation. The pellets, containing DD(E), were resuspended in a small volume of buffer (50 mM Tris, 150 mM NaCl, 2 mM CaCl2) (<10 ml) and chromatographed on a Sephacryl S200 (Pharmacia) size exclusion column (5×100 cm) in the same buffer. Fractions of protein eluted from the column were assayed by SDS-PAGE for DD(E). DD(E) contains subunits of 55 kD (Fragment E) and 190 kD (Fragment DD). […]
Dissociation constants were determined against DD(E) as described above.
Regarding `CC(C)C[C@H](NC(=O)[C@@H]1CSSC[C@H](NC(=O)[C@@H]2CCCN2C(=O)[C@@H](N)CC(C)C)C(=O)N[C@@H](CC(=O)O)C(=O)N[C@@H](Cc2ccc(O)cc2)C(=O)N[C@@H](Cc2ccc(O)cc2)C(=O)N[C@@H](C)C(=O)N[C@@H]([C@@H](C)O)C(=O)N1)C(=O)N[C@@H](CC(=O)O)C(N)=O` [SEQ ID NO: 45, LPCDYYATCLD], the Kd was found to be 12.3 µM.

`CC[C@H](C)[C@H](NC(=O)[C@H](Cc1c[nH]cn1)NC(=O)[C@@H]1CSSC[C@H](NC(=O)[C@H](Cc2c[nH]cn2)NC(=O)[C@@H](N)Cc2ccccc2)C(=O)N2CCC[C@H]2C(=O)N[C@@H](Cc2ccc(O)cc2)C(=O)N[C@@H](CC(=O)O)C(=O)N[C@@H](CC(C)C)C(=O)N1)C(N)=O` [SEQ ID NO: 60, FHCPYDLCHI] (H-FHCPYDLCHI-NH2; disulfide 3-8; N-terminus and C-terminus assumed): the Kd was determined as 2 µM.

For the molecule `CC(C)C[C@H](NC(=O)[C@@H]1CSSC[C@H](NC(=O)[C@@H]2CCCN2C(=O)[C@@H](N)CC(C)C)C(=O)N[C@@H](CC(=O)O)C(=O)N[C@@H](Cc2ccc(O)cc2)C(=O)N[C@@H](Cc2ccc(O)cc2)C(=O)NCC(=O)N[C@@H](CO)C(=O)N1)C(=O)N[C@@H](CC(=O)O)C(N)=O` [SEQ ID NO: 48, LPCDYYGSCLD] (H-LPCDYYGSCLD-NH2; disulfide 3-9), the Kd came out at 26 µM.
